# Target: T1, HLA-B*07:02 (human)
# T1 construct: also called peptide-receptive MHC molecules
# Test: UV-exchange b2m ELISA; exchange-yield grade
# Description: Candidate peptides for T cell based therapies according to the present invention were further tested for their MHC binding capacity (affinity). The individual peptide-MHC complexes were produced by UV-ligand exchange, where a UV-sensitive peptide is cleaved upon UV-irradiation, and exchanged with the peptide of interest as analyzed. Only peptide candidates that can effectively bind and stabilize the peptide-receptive MHC molecules prevent dissociation of the MHC complexes. To determine the yield of the exchange reaction, an ELISA was performed based on the detection of the light chain (β2m) of stabilized MHC complexes. The assay was performed as generally described in Rodenko et al. (Rodenko et al., 2006).
# 96 well MAXISorp plates (NUNC) were coated over night with 2 ug/ml streptavidin in PBS at room temperature, washed 4× and blocked for 1 h at 37° C. in 2% BSA containing blocking buffer. Refolded HLA-A*02:01/MLA-001 monomers served as standards, covering the range of 15-500 ng/ml. Peptide-MHC monomers of the UV-exchange reaction were diluted 100-fold in blocking buffer. Samples were incubated for 1 h at 37° C., washed four times, incubated with 2 ug/ml HRP conjugated anti-β2m for 1 h at 37° C., washed again and detected with TMB solution that is stopped with […]. Absorption was measured at 450 nm. Candidate peptides that show a high exchange yield (preferably higher than 50%, most preferred higher than 75%) are generally preferred for a generation and production of antibodies or fragments thereof, and/or T cell receptors or fragments thereof, as they show sufficient avidity to the MHC molecules and prevent dissociation of the MHC complexes.
binder,measurement,value
FPAMTESGGMIL,peptide exchange yield,50 to 75%
TVREASGLL,peptide exchange yield,50 to 75%
LPTSESLVSF,peptide exchange yield,20 to 50%
APRWFPQPTVV,peptide exchange yield,50 to 75%
FPNRLNLEA,peptide exchange yield,50 to 75%
VPSEIDAAF,peptide exchange yield,20 to 50%
RPMPNLRSV,peptide exchange yield,50 to 75%
HVTKTQATF,peptide exchange yield,20 to 50%
FPMSPVTSV,peptide exchange yield,50 to 75%
SPMATTSTL,peptide exchange yield,50 to 75%
HPVETSSAL,peptide exchange yield,50 to 75%
YPEGAAYEF,peptide exchange yield,20 to 50%
HPKTESATPAAY,peptide exchange yield,20 to 50%
LPAGTTGSLVF,peptide exchange yield,50 to 75%
SPRENFPDTL,peptide exchange yield,50 to 75%
KPYGGSGPL,peptide exchange yield,50 to 75%
SPAEPSVYATL,peptide exchange yield,> 75%
VPDQPHPEI,peptide exchange yield,50 to 75%
FPHPEMTTSM,peptide exchange yield,50 to 75%
IPRPEVQAL,peptide exchange yield,50 to 75%
YPLRGSSIF,peptide exchange yield,50 to 75%
SPSSPMSTF,peptide exchange yield,20 to 50%
FPHSEMTTL,peptide exchange yield,50 to 75%
FPHSEMTTV,peptide exchange yield,50 to 75%
LPRPGAVL,peptide exchange yield,50 to 75%
IPMAAVKQAL,peptide exchange yield,50 to 75%
YPLRGSSI,peptide exchange yield,20 to 50%
SPMTSLLTSGL,peptide exchange yield,50 to 75%
LPYGPGSEAAAF,peptide exchange yield,50 to 75%
VPDSGATATAY,peptide exchange yield,20 to 50%
LPYFREFSM,peptide exchange yield,50 to 75%
LPMWKVTAF,peptide exchange yield,50 to 75%
SPLPVTSLI,peptide exchange yield,50 to 75%
SPLPVTSLL,peptide exchange yield,50 to 75%
FPFVTGSTEM,peptide exchange yield,20 to 50%
LPEISTRTM,peptide exchange yield,20 to 50%
SPAMTSTSF,peptide exchange yield,20 to 50%
VPYRVVGL,peptide exchange yield,20 to 50%
FPYSEVTTL,peptide exchange yield,50 to 75%
SPSPVSSTL,peptide exchange yield,50 to 75%
SPSPVTSTL,peptide exchange yield,50 to 75%
GPRNAQRVL,peptide exchange yield,50 to 75%
TPGLRETSI,peptide exchange yield,20 to 50%
GPREALSRL,peptide exchange yield,50 to 75%
EPKTATVL,peptide exchange yield,20 to 50%
SPDPSKHLL,peptide exchange yield,20 to 50%
APVIFSHSA,peptide exchange yield,20 to 50%
YPTEHVQF,peptide exchange yield,20 to 50%
KVKSDRSVF,peptide exchange yield,10 to 20%
TPWAESSTKF,peptide exchange yield,20 to 50%
SPQSMSNTL,peptide exchange yield,50 to 75%
RPLFYVVSL,peptide exchange yield,20 to 50%
EPVTSSLPNF,peptide exchange yield,20 to 50%
LPTQTTSSL,peptide exchange yield,50 to 75%
RVEEVRALL,peptide exchange yield,50 to 75%
LPLGTSMTF,peptide exchange yield,50 to 75%
YPLRGSSIFGL,peptide exchange yield,50 to 75%
LPSVSGVKTTF,peptide exchange yield,20 to 50%
FPHSEMTTVM,peptide exchange yield,50 to 75%
FPQSQYPQY,peptide exchange yield,50 to 75%
SPRRSPRISF,peptide exchange yield,20 to 50%
HPGSSALHY,peptide exchange yield,20 to 50%
SPMDTFLLI,peptide exchange yield,20 to 50%
HPDPVGPGL,peptide exchange yield,20 to 50%
SPRTEASSAVL,peptide exchange yield,50 to 75%
LPLDTSTTL,peptide exchange yield,50 to 75%
FPFQPGSV,peptide exchange yield,50 to 75%

# From patent US20180222961A1 (IMMATICS BIOTECHNOLOGIES, published 2018)
